In patent publication US8465945B2, “Method for production and use of mite group 1 proteins” (Merck Patent GmbH, priority 1999, dated 2013):

Assays:
[1] = test system: IgE from pooled mite-allergic human sera; assay: Monoclonal Capture ELISA (Example 8B, Table 7); assay type: binding
Description: (§1) Assays were carried out as follows. A microtiter plate as described in Example 5 was coated overnight at 4° C. with 100 ng/well of anti-Der f 1 protein monoclonal antibody 6A8, denoted herein as anti-Der f 1 MAb 6A8, provided by Dr. Martin Chapman. The plate was washed in the manner described above. The following proteins were then added to wells, having been diluted in Assay Buffer in a 2-fold dilution series, from 0.75 to 50 ng/well: Heska native Derf1, P. pastoris-expressed PDerf1303b, and E. coli-expressed PDerf1303c. After incubation for 1 hour at room temperature, plates were washed as described in Example 5. Then 100 μl per well of a 1:1000 dilution in Assay Buffer of biotinylated anti-Der f 1 monoclonal antibody 4C1, also denoted anti-Der f 1 MAb 4C1, provided by Dr. Martin Chapman, was added for 1 hour at room temperature. Plates were washed, streptavidin-HRP conjugate was added, and plates were developed as described in Example 5.
B. The Der f 1 proteins described in Example 8B were reacted as described in Example 6 with a pool of serum samples collected from 16 mite-allergic human patients.

[2] = test system: anti-Der f 1 MAb 6A8 (capture) and anti-Der f 1 MAb 4C1 (detection); assay: Monoclonal Capture ELISA; assay type: binding
Description: as §1

[3] = test system: IgE from mite-allergic dog sera; assay: ELISA, binding of IgE from dog sera to coated Der f 1 proteins or mite extracts, detected with FcεR1α-biotin
[4] = test system: IgE from mite-allergic or normal human sera; assay: ELISA, binding of IgE from human sera to coated Der f 1 proteins or mite extracts, detected with FcεR1α-biotin

B1: PDerf1303b: Recombinant Der f 1 expressed by P. pastoris HCY215 from nDerf1909b (pro-form, SEQ ID NO:29); actually secreted as mature form (protein, listed as Dermatophagoides farinae)
chain: RPASIKTFEEFKKAFNKNYATVEEEEVARKNFLESLKYVEANKGAINHLSDLSLDEFKNRYLMSAEAFEQLKTQFDLNAETSACRINSVNVPSELDLRSLRTVTPIRMQGGCGSCWAFSGVAATESAYLAYRNTSLDLSEQELVDCASQHGCHGDTIPRGIEYIQQNGVVEERSYPYVAREQRCRRPNSQHYGISNYCQIYPPDVKQIREALTQTHTAIAVIIGIKDLRAFQHYDGRTIIQHDNGYQPNYHAVNIVGYGSTQGDDYWIVRNSWDTTWGDSGYGYFQAGNNLMMIEQYPYVVIM
Question: Which results are given for B1?
Answer: OD, Monoclonal Capture ELISA ([1]; 0.39 ng protein per well): 434 OD; OD, Monoclonal Capture ELISA ([1]; 0.78 ng protein per well): 871 OD; OD, Monoclonal Capture ELISA ([1]; 1.55 ng protein per well): 1399 OD; OD, Monoclonal Capture ELISA ([1]; 3.1 ng protein per well): 2103 OD; OD, Monoclonal Capture ELISA ([1]; 6.25 ng protein per well): 2463 OD; OD, Monoclonal Capture ELISA ([1]; 12.5 ng protein per well): 2388 OD; OD, Monoclonal Capture ELISA ([1]; 25 ng protein per well): 2389 OD; OD, protein captured by MAb 6A8 and detected by MAb 4C1 ([2]; 0.75 ng protein per well): 405 OD; OD, protein captured by MAb 6A8 and detected by MAb 4C1 ([2]; 1.5 ng protein per well): 916 OD; OD, protein captured by MAb 6A8 and detected by MAb 4C1 ([2]; 2.5 ng protein per well): 2088 OD; OD, protein captured by MAb 6A8 and detected by MAb 4C1 ([2]; 3.1 ng protein per well): 1544 OD; OD, protein captured by MAb 6A8 and detected by MAb 4C1 ([2]; 6.25 ng protein per well): 1961 OD; OD, protein captured by MAb 6A8 and detected by MAb 4C1 ([2]; 25 ng protein per well): 2156 OD; OD, protein captured by MAb 6A8 and detected by MAb 4C1 ([2]; 50 ng protein per well): 2148 OD; OD, bound IgE ([3]; Assay Number 1, serum dog pool): 364 OD multiplied by 1000; OD, bound IgE ([3]; Assay Number 1, serum dog-1): 21 OD multiplied by 1000; OD, bound IgE ([3]; Assay Number 1, serum dog-2): 1490 OD multiplied by 1000; OD, bound IgE ([3]; Assay Number 1, serum dog-3): 2499 OD multiplied by 1000; OD, bound IgE ([3]; Assay Number 2, dog sera pool A 146): 199 OD multiplied by 1000; OD, bound IgE ([3]; Assay Number 2, dog sera pool KS338): 27 OD multiplied by 1000; reactivity: share of dog serum samples reactive to native Der f 1 proteins that are also reactive to the recombinant protein ([3]; Table 1, 3 dog serum samples): 100%; OD, bound IgE ([4]; Assay Number 1, serum human 1916): 11 OD multiplied by 1000; OD, bound IgE ([4]; Assay Number 1, serum human3848): 1192 OD multiplied by 1000; OD, bound IgE ([4]; Assay Number 1, serum human 3958): 2244 OD multiplied by 1000; OD, bound IgE ([4]; Assay Number 1, serum human 3960): 646 OD multiplied by 1000; OD, bound IgE ([4]; Assay Number 1, serum human 3961): 433 OD multiplied by 1000; OD, bound IgE ([4]; Assay Number 1, serum human 3987): 1377 OD multiplied by 1000; OD, bound IgE ([4]; Assay Number 1, serum human 4289): 182 OD multiplied by 1000; OD, bound IgE ([4]; Assay Number 1, serum human 4467): 694 OD multiplied by 1000; OD, bound IgE ([4]; Assay Number 1, serum human 5207): 2153 OD multiplied by 1000; OD, bound IgE ([4]; Assay Number 1, serum human pool): 1547 OD multiplied by 1000; OD, bound IgE ([4]; Assay Number 2, serum Heska human B): 2 OD multiplied by 1000; OD, bound IgE ([4]; Assay Number 2, serum Heska human C): 4 OD multiplied by 1000; OD, bound IgE ([4]; Assay Number 2, serum Heska human D): 0 OD multiplied by 1000; OD, bound IgE ([4]; Assay Number 2, serum Heska human E): 1 OD multiplied by 1000; OD, bound IgE ([4]; Assay Number 2, serum Heska human F): 0 OD multiplied by 1000; OD, bound IgE ([4]; Assay Number 2, serum Heska human G): 0 OD multiplied by 1000; OD, bound IgE ([4]; Assay Number 2, serum Heska human H): 0 OD multiplied by 1000; OD, bound IgE ([4]; Assay Number 2, serum Heska human I): 4 OD multiplied by 1000; OD, bound IgE ([4]; Assay Number 2, serum Heska human J): 0 OD multiplied by 1000; OD, bound IgE ([4]; Assay Number 2, serum Heska human K): 0 OD multiplied by 1000; OD, bound IgE ([4]; Assay Number 2, serum Heska human L): 0 OD multiplied by 1000; OD, bound IgE ([4]; Assay Number 2, serum Heska human M): 0 OD multiplied by 1000; OD, bound IgE ([4]; Assay Number 2, serum Heska human N): 370 OD multiplied by 1000; OD, bound IgE ([4]; Assay Number 2, serum Heska human O): 0 OD multiplied by 1000; OD, bound IgE ([4]; Assay Number 2, serum Heska human P): 0 OD multiplied by 1000; OD, bound IgE ([4]; Assay Number 2, serum Heska human Q): 0 OD multiplied by 1000; OD, bound IgE ([4]; Assay Number 2, serum Heska human R): 0 OD multiplied by 1000; OD, bound IgE ([4]; Assay Number 2, serum human 1916): 15 OD multiplied by 1000; OD, bound IgE ([4]; Assay Number 2, serum human 3848): 904 OD multiplied by 1000; OD, bound IgE ([4]; Assay Number 2, serum human 3958): 2369 OD multiplied by 1000; OD, bound IgE ([4]; Assay Number 2, serum human 3960): 1046 OD multiplied by 1000; OD, bound IgE ([4]; Assay Number 2, serum human 3961): 709 OD multiplied by 1000; OD, bound IgE ([4]; Assay Number 2, serum human 3987): 2457 OD multiplied by 1000; OD, bound IgE ([4]; Assay Number 2, serum human 4289): 160 OD multiplied by 1000; OD, bound IgE ([4]; Assay Number 2, serum human 4467): 660 OD multiplied by 1000; OD, bound IgE ([4]; Assay Number 2, serum human 5207): 1304 OD multiplied by 1000; OD, bound IgE ([4]; Assay Number 2, serum human pool): 1551 OD multiplied by 1000; reactivity: share of human serum samples reactive to native Der f 1 proteins that are also reactive to the recombinant protein ([4]; Table 1, 9 human samples (8 sera and pool), OD numbers greater than 100 positive): 100%; reactivity: share of human serum samples reactive to native Der f 1 proteins that are also reactive to the recombinant protein ([4]; Table 2, 10 human serum samples): 100%; OD, bound IgE ([4]; Table 3, sera 429, PDerf1303b preparation number A166-26, PDerf1223b preparation 1000-7): 104 OD multiplied by 1000; OD, bound IgE ([4]; Table 3, sera 1916, PDerf1303b preparation number A166-26, PDerf1223b preparation 1000-7): 0 OD multiplied by 1000; OD, bound IgE ([4]; Table 3, sera 3848, PDerf1303b preparation number A166-26, PDerf1223b preparation 1000-7): 457 OD multiplied by 1000; OD, bound IgE ([4]; Table 3, sera 3958, PDerf1303b preparation number A166-26, PDerf1223b preparation 1000-7): 2616 OD multiplied by 1000; OD, bound IgE ([4]; Table 3, sera 3960, PDerf1303b preparation number A166-26, PDerf1223b preparation 1000-7): 1420 OD multiplied by 1000; OD, bound IgE ([4]; Table 3, sera 3961, PDerf1303b preparation number A166-26, PDerf1223b preparation 1000-7): 744 OD multiplied by 1000; OD, bound IgE ([4]; Table 3, sera 3987, PDerf1303b preparation number A166-26, PDerf1223b preparation 1000-7): 2588 OD multiplied by 1000; OD, bound IgE ([4]; Table 3, sera 4467, PDerf1303b preparation number A166-26, PDerf1223b preparation 1000-7): 780 OD multiplied by 1000; OD, bound IgE ([4]; Table 3, sera 5207, PDerf1303b preparation number A166-26, PDerf1223b preparation 1000-7): 1887 OD multiplied by 1000; OD, bound IgE ([4]; Table 3, sera human pool, PDerf1303b preparation number A166-26, PDerf1223b preparation 1000-7): 1226 OD multiplied by 1000; OD, bound IgE ([4]; Table 6, pool of sera from 16 mite-allergic human patients, 6.2 ng protein per well): 53 OD; OD, bound IgE ([4]; Table 6, pool of sera from 16 mite-allergic human patients, 12.5 ng protein per well): 178 OD; OD, bound IgE ([4]; Table 6, pool of sera from 16 mite-allergic human patients, 25 ng protein per well): 240 OD; OD, bound IgE ([4]; Table 6, pool of sera from 16 mite-allergic human patients, 50 ng protein per well): 293 OD; OD, bound IgE ([4]; Table 6, pool of sera from 16 mite-allergic human patients, 100 ng protein per well): 354 OD; OD, bound IgE ([4]; Table 6, pool of sera from 16 mite-allergic human patients, 200 ng protein per well): 484 OD
